Test results from PMC9352680, “A comprehensive thermodynamic model for RNA binding by the Saccharomyces cerevisiae Pumilio protein PUF4”.

Molecular target: T1, PUF4 RNA-binding domain (Saccharomyces cerevisiae, UniProt P25339 537-888)
T1 sequence: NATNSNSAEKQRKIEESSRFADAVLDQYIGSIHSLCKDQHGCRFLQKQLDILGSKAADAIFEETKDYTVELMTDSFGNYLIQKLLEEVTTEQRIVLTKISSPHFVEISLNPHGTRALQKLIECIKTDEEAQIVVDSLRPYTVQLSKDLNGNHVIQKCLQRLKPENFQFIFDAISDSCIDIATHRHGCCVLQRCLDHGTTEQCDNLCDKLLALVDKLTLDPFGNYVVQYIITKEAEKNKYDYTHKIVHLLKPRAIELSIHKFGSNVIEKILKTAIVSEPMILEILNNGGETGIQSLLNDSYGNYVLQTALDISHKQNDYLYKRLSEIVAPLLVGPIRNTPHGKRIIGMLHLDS
Assay: Mg; RNA-MaP; 20 mM Na-HEPES pH 7.4, 30 mM KOAc, 0.75 mM MgCl2, 0.1% Tween-20, 5% glycerol, 0.1 mg/mL BSA, 2 mM DTT; 25 C; 0.0125-409.6 nM protein
Conditions: tags: N-His6-TEV cleaved; C-SNAP kept, Cy3B-labelled; label: tethered on chip by stalled RNA polymerase

Binder	Kd
Ic_S2_P4E.1_K4.1_C4.1_H4.1_A4.1_[A6T]_[T7G]_F4.1_[T8C]_[A9C]_T4.1 (ssRNA) RNA: UUUGAUUAAUAUGAUAUCGUUCUUUCUUGUAUUGCCUUCUUUCUCGAUAUCAUAUUAAUCUUU	645 nM
Ic_S2_P4E.1_K4.1_C4.1_H4.1_A4.1_[T7C]_F4.1_[T8A]_[A9T]_T4.1 (ssRNA) RNA: UUUGAUUAAUAUGAUAUCGUUCUUUCUUGUAUACAUUUCUUUCUCGAUAUCAUAUUAAUCUUU	16.4 nM
Ic_S2_P4E.1_K4.1_C4.1_H4.1_A4.1_[A6T]_[T7C]_F4.1_[T8G]_[A9T]_T4.1 (ssRNA) RNA: UUUGAUUAAUAUGAUAUCGUUCUUUCUUGUAUUCGUUUCUUUCUCGAUAUCAUAUUAAUCUUU	112 nM
Ic_S2_P4E.1_K4.1_C4.1_H4.1_A4.1_[A6T]_[T7C]_F4.1_[T8A]_[A9T]_T4.1 (ssRNA) RNA: UUUGAUUAAUAUGAUAUCGUUCUUUCUUGUAUUCAUUUCUUUCUCGAUAUCAUAUUAAUCUUU	89.9 nM
Ic_S2_P4E.1_K4.1_C4.1_H4.1_A4.1_[T7G]_F4.1_[T8C]_[A9C]_T4.1 (ssRNA) RNA: UUUGAUUAAUAUGAUAUCGUUCUUUCUUGUAUAGCCUUCUUUCUCGAUAUCAUAUUAAUCUUU	53.8 nM
Ic_S2_P4E.1_K4.1_C4.1_H4.1_A4.1_[A6T]_[T7A]_F4.1_[A9G]_T4.1 (ssRNA) RNA: UUUGAUUAAUAUGAUAUCGUUCUUUCUUGUAUUAUGUUCUUUCUCGAUAUCAUAUUAAUCUUU	4.55 nM
Ic_S2_P4E.1_K4.1_C4.1_H4.1_A4.1_[A6T]_F4.1_[T8C]_[A9C]_T4.1 (ssRNA) RNA: UUUGAUUAAUAUGAUAUCGUUCUUUCUUGUAUUUCCUUCUUUCUCGAUAUCAUAUUAAUCUUU	52.7 nM
Ic_S2_P4E.1_K4.1_C4.1_H4.1_A4.1_[T7C]_F4.1_[T8G]_[A9C]_T4.1 (ssRNA) RNA: UUUGAUUAAUAUGAUAUCGUUCUUUCUUGUAUACGCUUCUUUCUCGAUAUCAUAUUAAUCUUU	55.7 nM
Ic_S2_P4E.1_K4.1_C4.1_H4.1_A4.1_[A6T]_F4.1_[T8G]_[A9C]_T4.1 (ssRNA) RNA: UUUGAUUAAUAUGAUAUCGUUCUUUCUUGUAUUUGCUUCUUUCUCGAUAUCAUAUUAAUCUUU	195 nM
Ic_S2_P4E.1_K4.1_C4.1_H4.1_A4.1_[A6T]_[T7C]_F4.1_[T8C]_[A9C]_T4.1 (ssRNA) RNA: UUUGAUUAAUAUGAUAUCGUUCUUUCUUGUAUUCCCUUCUUUCUCGAUAUCAUAUUAAUCUUU	162 nM
Ic_S2_P4E.1_K4.1_C4.1_H4.1_A4.1_[A6T]_[T7C]_F4.1_[T8A]_[A9C]_T4.1 (ssRNA) RNA: UUUGAUUAAUAUGAUAUCGUUCUUUCUUGUAUUCACUUCUUUCUCGAUAUCAUAUUAAUCUUU	595 nM
Ic_S2_P4E.1_K4.1_C4.1_H4.1_A4.1_[A6T]_F4.1_[T8A]_[A9C]_T4.1 (ssRNA) RNA: UUUGAUUAAUAUGAUAUCGUUCUUUCUUGUAUUUACUUCUUUCUCGAUAUCAUAUUAAUCUUU	106 nM
Ic_S2_P4E.1_K4.1_C4.1_H4.1_A4.1_[A6T]_[T7C]_F4.1_[A9C]_T4.1 (ssRNA) RNA: UUUGAUUAAUAUGAUAUCGUUCUUUCUUGUAUUCUCUUCUUUCUCGAUAUCAUAUUAAUCUUU	12.7 nM
Ic_S2_P4E.1_K4.1_C4.1_H4.1_A4.1_F4.1_T4.1 (ssRNA) RNA: UUUGAUUAAUAUGAUAUCGUUCUUUCUUGUAUAUUAUUCUUUCUCGAUAUCAUAUUAAUCUUU	0.224 nM
Ic_S2_P4E.1_K4.1_C4.1_H4.1_A4.1_[T7C]_F4.1_[T8C]_[A9C]_T4.1 (ssRNA) RNA: UUUGAUUAAUAUGAUAUCGUUCUUUCUUGUAUACCCUUCUUUCUCGAUAUCAUAUUAAUCUUU	31.3 nM
Ic_S2_P4E.1_K4.1_C4.1_H4.1_A4.1_[A6T]_F4.1_[T8A]_[A9T]_T4.1 (ssRNA) RNA: UUUGAUUAAUAUGAUAUCGUUCUUUCUUGUAUUUAUUUCUUUCUCGAUAUCAUAUUAAUCUUU	9.81 nM
Ic_S2_P4E.1_K4.1_C4.1_H4.1_A4.1_[A6T]_[T7A]_F4.1_[T8A]_[A9T]_T4.1 (ssRNA) RNA: UUUGAUUAAUAUGAUAUCGUUCUUUCUUGUAUUAAUUUCUUUCUCGAUAUCAUAUUAAUCUUU	78.2 nM
Ic_S2_P4E.1_K4.1_C4.1_H4.1_A4.1_[A6T]_F4.1_[T8C]_[A9T]_T4.1 (ssRNA) RNA: UUUGAUUAAUAUGAUAUCGUUCUUUCUUGUAUUUCUUUCUUUCUCGAUAUCAUAUUAAUCUUU	21.7 nM
Ic_S2_P4E.1_K4.1_C4.1_H4.1_A4.1_[A6T]_[T7C]_F4.1_[T8A]_T4.1 (ssRNA) RNA: UUUGAUUAAUAUGAUAUCGUUCUUUCUUGUAUUCAAUUCUUUCUCGAUAUCAUAUUAAUCUUU	201 nM
Ic_S2_P4E.1_K4.1_C4.1_H4.1_A4.1_[A6T]_[T7G]_F4.1_[T8C]_T4.1 (ssRNA) RNA: UUUGAUUAAUAUGAUAUCGUUCUUUCUUGUAUUGCAUUCUUUCUCGAUAUCAUAUUAAUCUUU	742 nM
Ic_S2_P4E.1_K4.1_C4.1_H4.1_A4.1_[T7C]_F4.1_[T8C]_[A9T]_T4.1 (ssRNA) RNA: UUUGAUUAAUAUGAUAUCGUUCUUUCUUGUAUACCUUUCUUUCUCGAUAUCAUAUUAAUCUUU	15.8 nM
Ic_S2_P4E.1_K4.1_C4.1_H4.1_A4.1_[T7C]_F4.1_[T8A]_[A9C]_T4.1 (ssRNA) RNA: UUUGAUUAAUAUGAUAUCGUUCUUUCUUGUAUACACUUCUUUCUCGAUAUCAUAUUAAUCUUU	60.4 nM

Binder	Kd
Ic_S2_P4E.1_K4.1_C4.1_H4.1_A4.1_[A6T]_[T7G]_F4.1_[A9C]_T4.1 (ssRNA) RNA: UUUGAUUAAUAUGAUAUCGUUCUUUCUUGUAUUGUCUUCUUUCUCGAUAUCAUAUUAAUCUUU	127 nM
Ic_S2_P4E.1_K4.1_C4.1_H4.1_A4.1_[A6T]_[T7A]_F4.1_[T8G]_[A9C]_T4.1 (ssRNA) RNA: UUUGAUUAAUAUGAUAUCGUUCUUUCUUGUAUUAGCUUCUUUCUCGAUAUCAUAUUAAUCUUU	685 nM
Ic_S2_P4E.1_K4.1_C4.1_H4.1_A4.1_[A6T]_[T7A]_F4.1_[T8C]_[A9G]_T4.1 (ssRNA) RNA: UUUGAUUAAUAUGAUAUCGUUCUUUCUUGUAUUACGUUCUUUCUCGAUAUCAUAUUAAUCUUU	93.7 nM
Ic_S2_P4E.1_K4.1_C4.1_H4.1_A4.1_[A6T]_[T7C]_F4.1_[T8C]_[A9G]_T4.1 (ssRNA) RNA: UUUGAUUAAUAUGAUAUCGUUCUUUCUUGUAUUCCGUUCUUUCUCGAUAUCAUAUUAAUCUUU	168 nM
Ic_S2_P4E.1_K4.1_C4.1_H4.1_A4.1_[A6T]_[T7G]_F4.1_[A9T]_T4.1 (ssRNA) RNA: UUUGAUUAAUAUGAUAUCGUUCUUUCUUGUAUUGUUUUCUUUCUCGAUAUCAUAUUAAUCUUU	57 nM
Ic_S2_P4E.1_K4.1_C4.1_H4.1_A4.1_[A6T]_[T7C]_F4.1_[T8A]_[A9G]_T4.1 (ssRNA) RNA: UUUGAUUAAUAUGAUAUCGUUCUUUCUUGUAUUCAGUUCUUUCUCGAUAUCAUAUUAAUCUUU	350 nM
Ic_S2_P4E.1_K4.1_C4.1_H4.1_A4.1_[A6T]_[T7G]_F4.1_[T8C]_[A9T]_T4.1 (ssRNA) RNA: UUUGAUUAAUAUGAUAUCGUUCUUUCUUGUAUUGCUUUCUUUCUCGAUAUCAUAUUAAUCUUU	536 nM
Ic_S2_P5E.1_K5.1_C5.1_H5.1_A5.1_[T6C]_[A7C]_F5.1_[T8G]_[T9C]_[A10T]_T5.1 (ssRNA) RNA: UUUGAUUAAUAUGAUAUCGUUCUUUCUUGUAUCCGCUUUCUUUCUCGAUAUCAUAUUAAUCUUU	596 nM
Ic_S2_P5E.1_K5.1_C5.1_H5.1_A5.1_[T5A]_[A7C]_F5.1_[T8C]_[T9C]_T5.1 (ssRNA) RNA: UUUGAUUAAUAUGAUAUCGUUCUUUCUUGUAAUCCCAUUCUUUCUCGAUAUCAUAUUAAUCUUU	669 nM
Ic_S2_P5E.1_K5.1_C5.1_H5.1_A5.1_F5.1_[T8C]_[T9A]_[A10T]_T5.1 (ssRNA) RNA: UUUGAUUAAUAUGAUAUCGUUCUUUCUUGUAUUACAUUUCUUUCUCGAUAUCAUAUUAAUCUUU	444 nM
Ic_S2_P5E.1_K5.1_C5.1_H5.1_A5.1_[T5C]_[T6A]_[A7G]_F5.1_[T8C]_[T9C]_T5.1 (ssRNA) RNA: UUUGAUUAAUAUGAUAUCGUUCUUUCUUGUACAGCCAUUCUUUCUCGAUAUCAUAUUAAUCUUU	119 nM
Ic_S2_P5E.1_K5.1_C5.1_H5.1_A5.1_[T5A]_[A7C]_F5.1_[T8A]_[T9C]_[A10C]_T5.1 (ssRNA) RNA: UUUGAUUAAUAUGAUAUCGUUCUUUCUUGUAAUCACCUUCUUUCUCGAUAUCAUAUUAAUCUUU	545 nM
Ic_S2_P5E.1_K5.1_C5.1_H5.1_A5.1_[T6A]_[A7T]_F5.1_[T8C]_[T9G]_[A10C]_T5.1 (ssRNA) RNA: UUUGAUUAAUAUGAUAUCGUUCUUUCUUGUAUAUCGCUUCUUUCUCGAUAUCAUAUUAAUCUUU	21.9 nM
Ic_S2_P5E.1_K5.1_C5.1_H5.1_A5.1_[A7C]_F5.1_[T8C]_[T9C]_[A10T]_T5.1 (ssRNA) RNA: UUUGAUUAAUAUGAUAUCGUUCUUUCUUGUAUUCCCUUUCUUUCUCGAUAUCAUAUUAAUCUUU	142 nM
Ic_S2_P5E.1_K5.1_C5.1_H5.1_A5.1_[T6G]_[A7T]_F5.1_[T8C]_[T9A]_[A10C]_T5.1 (ssRNA) RNA: UUUGAUUAAUAUGAUAUCGUUCUUUCUUGUAUGUCACUUCUUUCUCGAUAUCAUAUUAAUCUUU	293 nM
Ic_S2_P5E.1_K5.1_C5.1_H5.1_A5.1_[T5C]_[T6A]_[A7T]_F5.1_[T8G]_[T9G]_[A10T]_T5.1 (ssRNA) RNA: UUUGAUUAAUAUGAUAUCGUUCUUUCUUGUACAUGGUUUCUUUCUCGAUAUCAUAUUAAUCUUU	45.8 nM
Ic_S2_P5E.1_K5.1_C5.1_H5.1_A5.1_[T5G]_F5.1_[T8A]_[T9A]_T5.1 (ssRNA) RNA: UUUGAUUAAUAUGAUAUCGUUCUUUCUUGUAGUAAAAUUCUUUCUCGAUAUCAUAUUAAUCUUU	656 nM
UCUCUUUGUAUAUACUCUCUU (ssRNA) [Ib_S1_P4E.1_K4.1_C4.1_H4.1_A4.1_F4.1_[T8A]_[A9C]_T4.1]	8.2 nM
UCUCUUUAUAUAUGAUCUCUU (ssRNA) [Ib_S1_P4E.1_K4.1_C4.1_H4.1_[G2A]_A4.1_F4.1_[T8G]_T4.1]	> 2300 nM
UCUCUUUGUAUAUCUUCUCUU (ssRNA) [Ib_S1_P4E.1_K4.1_C4.1_H4.1_A4.1_F4.1_[T8C]_[A9T]_T4.1]	13.4 nM
UCUCUUUGUAUAUAUUCUCUU (ssRNA) [Ic_S1_P4E.1_K4.1_C4.1_H4.1_A4.1_F4.1_[T8A]_[A9T]_T4.1]	3.56 nM
